# Assay results: paper doi:10.1101/2024.08.22.609182
# Molecular target: AIFM1 OM (obligate monomeric AIFM1 variant, triple mutant in the dimerisation interface) (human) (UniProt O95831)
# Assay: mass photometry
# AIFM1 OM (obligate monomeric AIFM1 variant, triple mutant in the dimerisation interface) (human), sequence (O95831 102-613, change not shown): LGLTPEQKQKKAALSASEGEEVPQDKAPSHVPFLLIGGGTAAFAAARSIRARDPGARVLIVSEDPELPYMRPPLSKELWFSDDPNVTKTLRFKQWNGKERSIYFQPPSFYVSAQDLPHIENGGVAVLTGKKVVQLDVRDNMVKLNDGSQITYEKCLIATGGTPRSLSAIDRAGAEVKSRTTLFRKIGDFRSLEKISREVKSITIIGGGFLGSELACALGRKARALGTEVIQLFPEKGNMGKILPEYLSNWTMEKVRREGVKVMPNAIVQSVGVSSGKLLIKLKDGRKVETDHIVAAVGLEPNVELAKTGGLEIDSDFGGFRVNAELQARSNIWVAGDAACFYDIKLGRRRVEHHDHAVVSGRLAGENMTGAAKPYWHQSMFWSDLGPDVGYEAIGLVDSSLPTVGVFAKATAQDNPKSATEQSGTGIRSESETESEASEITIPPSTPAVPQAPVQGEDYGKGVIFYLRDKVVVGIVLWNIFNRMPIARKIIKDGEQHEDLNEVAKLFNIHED
substance,measurement,value
"adenylate kinase 2 (AK2), recombinant human (from UniProt P54819 1-239) (enzyme)",stoichiometry N (AK2 per AIFM1 (printed as 1:1)),1
